Our source for the Kd and binding signal (% of input internalized) values is paper PMC3722562.

For one data set, the target named is HER2-GST fusion (human) (UniProt P04626). The experiment in a line: not stated (cited). Particulars: 2'-fluoro pyrimidines (general statement); Cell assays mostly in DPBS at 37 C (4 C for surface binding), washes DPBS, 0.5 M NaCl +/- 0.2 N acetic acid or trypsin; Qdot flow after 10% FBS/DPBS block …; cited from earlier work.
The target of data set [1] is PSMA (prostate specific membrane antigen) (human) (UniProt Q04609). The experiment in a line: not stated (cited). Particulars: 2'-fluoro pyrimidines; Cell assays mostly in DPBS at 37 C (4 C for surface binding), washes DPBS, 0.5 M NaCl +/- 0.2 N acetic acid or trypsin; Qdot flow after 10% FBS/DPBS block …; cited from earlier work.
PSMA (prostate specific membrane antigen) (human), sequence (Q04609 whole entry): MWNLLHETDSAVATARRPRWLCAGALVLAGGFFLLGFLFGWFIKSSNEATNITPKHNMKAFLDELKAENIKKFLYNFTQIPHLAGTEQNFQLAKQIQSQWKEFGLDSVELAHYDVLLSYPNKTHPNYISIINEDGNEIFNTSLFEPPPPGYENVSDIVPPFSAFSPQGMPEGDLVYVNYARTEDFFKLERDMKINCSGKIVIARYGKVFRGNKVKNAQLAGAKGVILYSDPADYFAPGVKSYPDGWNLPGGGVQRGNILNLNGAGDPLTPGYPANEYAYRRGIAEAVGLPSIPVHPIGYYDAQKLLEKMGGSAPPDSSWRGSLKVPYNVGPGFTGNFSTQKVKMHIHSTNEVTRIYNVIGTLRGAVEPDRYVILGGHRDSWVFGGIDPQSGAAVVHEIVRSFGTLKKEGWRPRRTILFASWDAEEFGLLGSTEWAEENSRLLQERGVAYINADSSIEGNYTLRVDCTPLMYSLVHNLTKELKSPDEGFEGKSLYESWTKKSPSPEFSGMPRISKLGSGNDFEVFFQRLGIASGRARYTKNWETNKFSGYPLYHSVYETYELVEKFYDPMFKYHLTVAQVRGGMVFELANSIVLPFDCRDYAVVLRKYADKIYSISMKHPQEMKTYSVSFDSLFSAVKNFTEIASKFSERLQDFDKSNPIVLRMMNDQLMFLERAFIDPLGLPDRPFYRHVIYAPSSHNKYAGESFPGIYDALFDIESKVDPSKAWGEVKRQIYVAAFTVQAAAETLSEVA
Data set [2] concerns the target PSMA on PC3(PSMA+) cells (human?) (UniProt Q04609). As to the kind of experiment: NIR cell uptake (QUSIM). Particulars: 10 nM, 15 min, 37 C, trypsin wash, 2'-fluoro pyrimidines, Cell assays mostly in DPBS at 37 C (4 C for surface binding), washes DPBS, 0.5 M NaCl +/- 0.2 N acetic acid or trypsin, Qdot flow after 10% FBS/DPBS block ….
The next data set has as its target HER2 (rat) (rat) (UniProt P06494). As to the kind of experiment: not stated (cited). The note with it: 2'-fluoro pyrimidines; Cell assays mostly in DPBS at 37 C (4 C for surface binding), washes DPBS, 0.5 M NaCl +/- 0.2 N acetic acid or trypsin; Qdot flow after 10% FBS/DPBS block …; cited from earlier work.
The target of the next data set is TrkB (mouse) (mouse) (UniProt P15209). The experiment in a line: not stated (cited). Particulars: 2'-fluoro pyrimidines; Cell assays mostly in DPBS at 37 C (4 C for surface binding), washes DPBS, 0.5 M NaCl +/- 0.2 N acetic acid or trypsin; Qdot flow after 10% FBS/DPBS block …; cited from earlier work.
TrkB (mouse) (mouse), sequence (P15209 whole entry): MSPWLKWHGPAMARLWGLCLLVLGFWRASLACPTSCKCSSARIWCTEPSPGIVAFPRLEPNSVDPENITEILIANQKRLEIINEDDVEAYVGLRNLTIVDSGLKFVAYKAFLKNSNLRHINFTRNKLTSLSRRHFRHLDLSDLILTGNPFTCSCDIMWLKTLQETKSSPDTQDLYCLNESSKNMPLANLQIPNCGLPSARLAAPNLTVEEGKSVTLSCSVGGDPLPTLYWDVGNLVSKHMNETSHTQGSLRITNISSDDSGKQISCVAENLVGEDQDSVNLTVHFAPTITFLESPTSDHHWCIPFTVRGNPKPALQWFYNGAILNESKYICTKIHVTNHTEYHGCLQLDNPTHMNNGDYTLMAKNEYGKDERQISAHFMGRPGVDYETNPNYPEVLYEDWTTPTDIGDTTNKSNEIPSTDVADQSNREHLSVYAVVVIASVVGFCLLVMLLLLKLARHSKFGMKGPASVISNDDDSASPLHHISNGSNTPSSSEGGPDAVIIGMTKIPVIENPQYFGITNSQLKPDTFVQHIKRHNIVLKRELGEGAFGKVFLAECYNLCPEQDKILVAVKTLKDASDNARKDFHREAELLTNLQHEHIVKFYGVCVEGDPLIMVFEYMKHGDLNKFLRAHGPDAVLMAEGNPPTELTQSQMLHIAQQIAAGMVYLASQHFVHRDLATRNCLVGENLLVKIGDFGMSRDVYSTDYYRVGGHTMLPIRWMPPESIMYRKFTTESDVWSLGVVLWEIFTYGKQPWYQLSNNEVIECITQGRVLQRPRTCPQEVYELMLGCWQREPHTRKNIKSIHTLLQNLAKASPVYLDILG

PSMA on PC3(PSMA+) cells (human?), sequence (Q04609 whole entry): as the sequence (Q04609 whole entry) above
HER2 (rat) (rat), sequence (P06494 whole entry): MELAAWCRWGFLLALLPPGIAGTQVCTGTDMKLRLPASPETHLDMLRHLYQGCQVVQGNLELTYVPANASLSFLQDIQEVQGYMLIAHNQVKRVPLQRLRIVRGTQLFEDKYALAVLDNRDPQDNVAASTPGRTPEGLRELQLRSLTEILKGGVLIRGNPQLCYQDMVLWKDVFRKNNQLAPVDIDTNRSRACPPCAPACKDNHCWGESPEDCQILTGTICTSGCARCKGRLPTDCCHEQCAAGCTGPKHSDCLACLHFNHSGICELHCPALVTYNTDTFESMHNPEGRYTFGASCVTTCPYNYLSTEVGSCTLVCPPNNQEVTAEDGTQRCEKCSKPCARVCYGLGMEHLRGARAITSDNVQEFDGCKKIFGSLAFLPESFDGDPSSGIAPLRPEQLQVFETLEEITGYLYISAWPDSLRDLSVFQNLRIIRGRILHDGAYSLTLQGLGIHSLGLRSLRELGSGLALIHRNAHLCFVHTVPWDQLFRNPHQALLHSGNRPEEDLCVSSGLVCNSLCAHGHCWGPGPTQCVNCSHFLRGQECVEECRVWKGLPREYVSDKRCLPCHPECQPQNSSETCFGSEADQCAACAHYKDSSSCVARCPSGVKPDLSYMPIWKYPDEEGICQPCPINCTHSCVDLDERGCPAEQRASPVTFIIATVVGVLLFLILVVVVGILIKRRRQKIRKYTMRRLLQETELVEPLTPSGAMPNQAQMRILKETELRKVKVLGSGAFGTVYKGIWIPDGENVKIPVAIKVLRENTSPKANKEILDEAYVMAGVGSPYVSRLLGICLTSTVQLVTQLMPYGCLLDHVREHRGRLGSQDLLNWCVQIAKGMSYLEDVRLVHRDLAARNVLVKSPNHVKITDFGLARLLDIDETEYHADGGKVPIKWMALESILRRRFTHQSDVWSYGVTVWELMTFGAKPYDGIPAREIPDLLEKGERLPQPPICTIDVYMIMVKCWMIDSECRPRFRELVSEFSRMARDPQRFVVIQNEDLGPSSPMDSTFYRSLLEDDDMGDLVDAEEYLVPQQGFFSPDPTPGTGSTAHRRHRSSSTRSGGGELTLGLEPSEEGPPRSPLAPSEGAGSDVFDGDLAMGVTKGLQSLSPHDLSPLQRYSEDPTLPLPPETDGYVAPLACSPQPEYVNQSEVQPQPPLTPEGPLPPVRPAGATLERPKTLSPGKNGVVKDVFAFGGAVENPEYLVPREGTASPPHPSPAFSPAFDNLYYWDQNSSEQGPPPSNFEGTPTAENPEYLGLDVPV

As to “AGCCGCGAGGGGAGGGAUAGGGUAGGGCGCGGCU [hHER2-apt]”, in the data set with HER2-GST fusion (human), the Kd (in general, the concentration at which binding is half-saturated) is 3.5 nM. Regarding “GGGACCGAAAAAGACCUGACUUCUAUACUAAGUCUACGUUCCC [A9g]”, the equilibrium dissociation constant (Kd) in data set [1] was 5 nM. In data set [2] (<1% in PSMA- cells), this sequence came in with a binding signal (% of input internalized) of 13. With “GGGACCGAAAAAGACCUGGCUUCUAUACUAAGUCUACGUUCCC [A9g.6]”, in data set [2], the binding signal (% of input internalized) is less than 0.5. Consider “GGGAGGACGAUGCGGUCCUGUCGUCUGUUCGUCCCCAGACGACUCGCCCGA [E1]”, for which the equilibrium dissociation constant (Kd) with HER2 (rat) (rat) was 60.8 nM. For “GGGAGGACGAUGCGGUCGUAUUAUCCGCUGCACGCCAGACGACUCGCCCGA [C4-3]”, the Kd in the data set with TrkB (mouse) (mouse) was 2 nM.
